# Measurements from US20240109955A1 (published 2024).
# B1: A19-61.1 (antibody, V domains shown)
# VH: QVQLVESGGGVVQPGRSLRLSCAASGFTFSSYAFHWVRQAPGKGLEWVAVISYDGSNQYYADSVKGRFTISRDNSKNTLYLQMNSLRADDTAVYYCARDLAIAVAGTWHYYNGMDVWGQGTTVTVSS
# VL: DIQMTQSPSSVSASVGDRVIITCRASQGISSWLAWYQQKPGKAPKVLIYDASSLQSGVPSRFSGSGYGTDFTLTISSLQPEDSATYYCQQAKSFPITFGQGTRLEIK
# Target: SARS-CoV-2 spike protein, original Wuhan strain (WT) (SARS-CoV-2, UniProt P0DTC2 14-1273)
# Experiment: cell-based or functional assay
binder,measurement,value
B1,"IC50, pseudovirus neutralization",0.172 nM
